± gives the standard deviation of the averaged measurements.
Assays:
Saccharomyces cerevisiae [1] = test: protein stability index of tFT-peptide fusion (C-terminal peptide) (PSI (0-1 scale)); higher = more stable (slower turnover); conditions: genetic background: wild type; temperature: 30 C
Saccharomyces cerevisiae [2] = test: as above
Experimental: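 MPS profiling in S. cerevisiae of the tFT-X12 degron library: putative degron peptides plus stable controls, 12 aa, fused to the C-terminus of a sfGFP-mCherry timer. Cells are FACS-sorted into 8 mCherry/sfGFP bins and deep-sequenced. PSI runs from 0 (unstable) to 1 (stable). Backgrounds are wild type, das1Δ and doa10Δ at 30 °C, and wild type, das1Δ, cdc34-1 and cdc53-1 at 37 °C; 2-3 technical replicates each.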

[3] = genetic background: cdc34-1, temperature: 37 C
[4] = genetic background: cdc53-1, temperature: 37 C
[5] = genetic background: das1 deletion, temperature: 30 C
[6] = genetic background: das1 deletion, temperature: 37 C
[7] = genetic background: doa10 deletion, temperature: 30 C
[8] = genetic background: wild type, temperature: 30 C
[9] = genetic background: wild type, temperature: 37 C
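Also: PSI is a weighted mean of sequencing reads over stability bins, variants kept only with over 10 reads, mCherry proximal and sfGFP distal, peptide attached via GGGS linker.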

| Sequence | protein stability index (Saccharomyces cerevisiae [1]) | protein stability index (Saccharomyces cerevisiae [2]; [3]) | protein stability index (Saccharomyces cerevisiae [2]; [4]) | protein stability index (Saccharomyces cerevisiae [2]; [5]) | protein stability index (Saccharomyces cerevisiae [2]; [6]) | protein stability index (Saccharomyces cerevisiae [2]; [7]) | protein stability index (Saccharomyces cerevisiae [2]; [8]) | protein stability index (Saccharomyces cerevisiae [2]; [9]) |
| --- | --- | --- | --- | --- | --- | --- | --- | --- |
| YTVRRVWLVRSR | 0.423 ± 0.0074 | 0.445 ± 0.0056 | 0.521 ± 0.029 | 0.344 ± 0.032 | 0.5005 ± 0.0038 | 0.312 ± 0.012 | 0.325 ± 0.038 | 0.4934 ± 0.0033 |
| RCRLYLNVVVLC | 0.246 ± 0.07 | 0.269 ± 0.027 | 0.31 ± 0.0054 | 0.287 ± 0.047 | 0.413 ± 0.02 | 0.129 ± 0.01 | 0.122 ± 0.025 | 0.17 ± 0.0064 |
| GRVETIEFLFLR | 0.464 ± 0.025 | 0.455 ± 0.0049 | 0.4335 ± 0.0015 | 0.368 ± 0.038 | 0.525 ± 0.0074 | 0.656 ± 0.012 | 0.394 ± 0.044 | 0.508 ± 0.022 |
| GVARALFLWKAV | 0.379 ± 0.041 | 0.64 ± 0.032 | 0.709 ± 0.018 | 0.65 ± 0.022 | 0.7486 ± 0.0021 | 0.286 ± 0.0013 | 0.317 ± 0.03 | 0.464 ± 0.0088 |
| CYSLLFVSVILF | 0.218 ± 0.023 | 0.123 ± 0.091 | 0.158 ± 0.036 | 0.151 ± 0.015 | 0.271 ± 0.023 | 0.135 ± 0.01 | 0.138 ± 0.021 | 0.248 ± 0.0038 |
| GFIRVRHLRSLC | 0.234 ± 0.026 | 0.55 ± 0.0029 | 0.658 ± 0.024 | 0.645 ± 0.019 | 0.7128 ± 0.0023 | 0.121 ± 0.019 | 0.138 ± 0.015 | 0.194 ± 0.026 |
| VQTVRLVFQVLA |  | 0.307 ± 0.0063 | 0.373 ± 0.049 | 0.25 ± 0.033 | 0.4 ± 0.0099 | 0.106 ± 0.0074 | 0.125 ± 0.031 | 0.207 ± 0.018 |
| FVLFCWFFCIVW | 0.273 ± 0.043 | 0.293 ± 0.019 | 0.326 ± 0.029 | 0.263 ± 0.011 | 0.3625 ± 0.00095 | 0.286 ± 0.032 | 0.226 ± 0.033 | 0.342 ± 0.012 |
| FPSCYIWEVEVM | 0.442 ± 0.037 | 0.403 ± 0.049 | 0.403 ± 0.021 | 0.32 ± 0.039 | 0.484 ± 0.038 | 0.268 ± 0.0021 | 0.333 ± 0.023 | 0.436 ± 0.0047 |
| GCLFASWPLAVC | 0.303 ± 0.043 | 0.104 ± 0.026 | 0.109 ± 0.0041 | 0.214 ± 0.022 | 0.2564 ± 0.0019 | 0.166 ± 0.008 | 0.198 ± 0.016 | 0.209 ± 0.0077 |
| VILYCSNVAVCS | 0.294 ± 0.0038 | 0.355 ± 0.048 | 0.42 ± 0.013 | 0.246 ± 0.019 | 0.4263 ± 0.0013 | 0.212 ± 0.004 | 0.248 ± 0.023 | 0.399 ± 0.011 |
| GLFFLCLLSMCF | 0.384 ± 0.061 | 0.34 ± 0.012 | 0.303 ± 0.021 | 0.306 ± 0.029 | 0.423 ± 0.023 | 0.336 ± 0.014 | 0.29 ± 0.029 | 0.396 ± 0.0071 |
| RPCRPLIAAFVF | 0.502 ± 0.011 | 0.531 ± 0.0097 | 0.537 ± 0.022 | 0.415 ± 0.045 | 0.5628 ± 0.0049 | 0.374 ± 0.012 | 0.421 ± 0.031 | 0.529 ± 0.0077 |
| AGCFFVVLCGFF | 0.431 ± 0.0071 | 0.436 ± 0.018 | 0.503 ± 0.04 | 0.334 ± 0.035 | 0.495 ± 0.016 | 0.311 ± 0.0056 | 0.326 ± 0.0067 | 0.4673 ± 0.0025 |
| SLAPPPPLLILR | 0.335 ± 0.022 | 0.403 ± 0.049 | 0.325 ± 0.015 | 0.345 ± 0.021 | 0.479 ± 0.049 | 0.605 ± 0.0019 | 0.348 ± 0.025 | 0.4471 ± 0.0029 |
| VLWSCCGGVRVR | 0.516 ± 0.036 | 0.587 ± 0.014 | 0.629 ± 0.013 | 0.465 ± 0.023 | 0.65 ± 0.022 | 0.452 ± 0.03 | 0.483 ± 0.0067 | 0.612 ± 0.018 |
| LLPFSLLDLLLC | 0.488 ± 0.066 | 0.658 ± 0.028 | 0.707 ± 0.021 | 0.58 ± 0.028 | 0.681 ± 0.016 | 0.361 ± 0.029 | 0.404 ± 0.017 | 0.607 ± 0.0088 |
| LVGYSVFVLFFS |  | 0.282 ± 0.015 | 0.5056 ± 0.0012 | 0.253 ± 0.034 | 0.498 ± 0.012 | 0.21 ± 0.0089 | 0.226 ± 0.048 | 0.426 ± 0.037 |

From the supplement of paper PMC10724198
